In US20260265354A1 (JIANGSU MABWELL HEALTH PHARMACEUTICAL R AND D, published 2026):

T1: Nectin-like-2 (UniProt Q9BY67 45-374, limits assumed)
T1 construct: Bought recombinant protein; also called CADM1; IgSF4
T1 sequence (looked up): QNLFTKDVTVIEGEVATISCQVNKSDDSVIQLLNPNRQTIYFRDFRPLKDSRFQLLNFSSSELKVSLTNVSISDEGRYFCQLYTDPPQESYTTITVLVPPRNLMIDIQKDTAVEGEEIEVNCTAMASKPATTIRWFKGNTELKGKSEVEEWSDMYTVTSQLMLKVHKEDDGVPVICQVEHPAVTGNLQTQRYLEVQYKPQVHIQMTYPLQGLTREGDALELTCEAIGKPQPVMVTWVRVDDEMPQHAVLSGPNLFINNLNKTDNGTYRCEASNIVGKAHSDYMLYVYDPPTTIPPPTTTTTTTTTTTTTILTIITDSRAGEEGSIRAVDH

T2: Nectin-like-3 (UniProt Q8N3J6 25-367, limits assumed)
T2 construct: Bought recombinant protein; also called CADM2; IgSF4D
T2 sequence (looked up): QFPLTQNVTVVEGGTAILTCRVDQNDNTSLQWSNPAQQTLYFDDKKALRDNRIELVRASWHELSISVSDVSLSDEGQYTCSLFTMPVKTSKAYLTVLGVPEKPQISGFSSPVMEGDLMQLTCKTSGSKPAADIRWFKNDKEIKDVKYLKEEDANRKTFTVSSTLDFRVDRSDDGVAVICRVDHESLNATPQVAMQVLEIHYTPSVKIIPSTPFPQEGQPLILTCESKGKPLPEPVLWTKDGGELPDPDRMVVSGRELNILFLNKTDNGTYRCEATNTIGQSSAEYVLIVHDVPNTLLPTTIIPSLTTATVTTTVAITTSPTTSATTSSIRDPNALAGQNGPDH

T3: Nectin-like-5 (UniProt P15151 21-343)
T3 construct: Bought recombinant protein; also called CD155; PVR
T3 sequence (looked up): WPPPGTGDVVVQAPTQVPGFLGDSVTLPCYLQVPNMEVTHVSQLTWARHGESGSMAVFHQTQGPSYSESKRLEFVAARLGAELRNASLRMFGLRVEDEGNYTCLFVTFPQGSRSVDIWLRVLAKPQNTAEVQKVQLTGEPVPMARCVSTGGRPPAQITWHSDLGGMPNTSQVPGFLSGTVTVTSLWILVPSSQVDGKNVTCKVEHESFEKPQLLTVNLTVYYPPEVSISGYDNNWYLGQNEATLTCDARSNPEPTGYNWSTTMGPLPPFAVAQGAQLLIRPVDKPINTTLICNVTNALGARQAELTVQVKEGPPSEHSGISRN

T4: recombinant human Nectin-4 protein (human, UniProt Q96NY8 32-349)
T4 construct: Prepared in-house (Jiangsu Mabwell) by transient transfection of CHO cells; also called PVRL-4; PRR-4
T4 sequence: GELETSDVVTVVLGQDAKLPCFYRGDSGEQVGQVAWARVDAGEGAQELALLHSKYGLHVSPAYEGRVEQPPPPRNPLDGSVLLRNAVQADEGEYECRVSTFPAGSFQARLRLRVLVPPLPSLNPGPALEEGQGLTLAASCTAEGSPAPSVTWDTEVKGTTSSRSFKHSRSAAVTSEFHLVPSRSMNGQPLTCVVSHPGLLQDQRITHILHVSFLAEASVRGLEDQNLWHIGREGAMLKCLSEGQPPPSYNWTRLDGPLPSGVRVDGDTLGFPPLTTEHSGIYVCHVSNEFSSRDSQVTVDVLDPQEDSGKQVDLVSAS

T5: Nectin-1 (UniProt Q15223 31-334, limits assumed)
T5 construct: Bought recombinant protein; also called CD111; PVRL-1
T5 sequence (looked up): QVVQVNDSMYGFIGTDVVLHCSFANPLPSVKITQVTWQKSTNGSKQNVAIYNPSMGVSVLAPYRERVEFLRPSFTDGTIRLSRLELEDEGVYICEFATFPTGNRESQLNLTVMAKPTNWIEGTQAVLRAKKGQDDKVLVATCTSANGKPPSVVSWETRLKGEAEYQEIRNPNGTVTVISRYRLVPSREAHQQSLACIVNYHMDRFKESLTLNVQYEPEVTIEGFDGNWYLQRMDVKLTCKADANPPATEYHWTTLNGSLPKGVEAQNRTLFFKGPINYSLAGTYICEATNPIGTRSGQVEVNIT

T6: Nectin-like-1 (UniProt Q8N126 25-330, limits assumed)
T6 construct: Bought recombinant protein; also called CADM3; IgSF4B
T6 sequence (looked up): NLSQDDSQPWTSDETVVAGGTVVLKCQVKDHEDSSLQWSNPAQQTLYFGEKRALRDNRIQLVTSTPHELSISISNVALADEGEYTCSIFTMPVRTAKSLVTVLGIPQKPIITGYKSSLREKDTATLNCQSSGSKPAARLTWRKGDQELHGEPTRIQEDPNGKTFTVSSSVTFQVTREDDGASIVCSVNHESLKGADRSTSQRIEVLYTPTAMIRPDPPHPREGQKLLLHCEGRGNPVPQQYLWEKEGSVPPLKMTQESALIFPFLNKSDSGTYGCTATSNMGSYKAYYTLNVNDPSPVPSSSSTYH


Assays:
Assay in all cases: ELISA, coated antigen, antibody at 10 ng/ml
Nectin-like-2 = target: T1, Nectin-like-2
Procedure: (§1) Coating: Nectin-1, Nectin-2, Nectin-3, Nectin-4, Nectin-like-1, Nectin-like-2, Nectin-like-3, Nectin-like-4, and Nectin-like-5 were diluted to 5 μg/ml in coating buffer (carbonate buffer, pH 9.6) respectively. A 96-well plate was coat with 100 μl per well and incubated overnight at 2-8° C.;
(§2) Sample loading: The plate was taken out, patted dry, and washed twice with 200 μl/well of PBST, then patted dry. The Nectin-4 antibodies prepared in Example 1 (antibody MM11, antibody R012, and antibody R036) were diluted with 1% BSA/PBST to concentrations of 10 μg/ml, 1 μg/ml, 100 ng/ml, and 10 ng/ml, respectively. 1% BSA/PBST solution for dilution was set as a blank control. 100 μl per well was added to the 96-well plate, and incubated at room temperature for 2 hours;
(§3) Reaction termination and plate reading: 100 μl/well of 1 mol/L H3PO4 was added to terminate the reaction and the plated was read. The absorbances of wells in the plate at 450 nm with 650 nm as reference wavelength were read and recorded as OD_{450 nm-650 nm}.

Nectin-like-3 = target: T2, Nectin-like-3
Procedure: as §1, §2, §3

Nectin-like-5 = target: T3, Nectin-like-5
Procedure: as §1, §2, §3

[1] = target: T4, recombinant human Nectin-4 protein
Procedure: as §1, §2, §3

Nectin-1 = target: T5, Nectin-1
Procedure: as §1, §2, §3

Nectin-3 = target: T7, Nectin-3 (UniProt Q9NQS3 58-404, limits assumed)
T7 construct: Bought recombinant protein; also called CD113; PVRL-3
Procedure: as §1, §2, §3

Nectin-like-1 = target: T6, Nectin-like-1
Procedure: as §1, §2, §3

T7 sequence (Q9NQS3 58-404 limits assumed): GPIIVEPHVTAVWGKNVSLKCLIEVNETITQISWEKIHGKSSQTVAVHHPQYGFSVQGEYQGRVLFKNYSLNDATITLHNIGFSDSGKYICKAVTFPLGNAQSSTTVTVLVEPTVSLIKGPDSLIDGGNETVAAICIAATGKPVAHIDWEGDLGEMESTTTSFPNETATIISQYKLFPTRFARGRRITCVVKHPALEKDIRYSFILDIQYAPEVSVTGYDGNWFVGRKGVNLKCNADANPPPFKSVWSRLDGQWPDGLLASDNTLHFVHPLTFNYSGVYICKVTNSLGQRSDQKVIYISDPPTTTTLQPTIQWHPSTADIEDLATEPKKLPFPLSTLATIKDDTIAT

Binder	OD detection value (Nectin-like-2) [OD450 nm-650 nm]	OD detection value (Nectin-like-3) [OD450 nm-650 nm]	OD detection value (Nectin-like-5) [OD450 nm-650 nm]	OD detection value [1] [OD450 nm-650 nm]	OD detection value (Nectin-1) [OD450 nm-650 nm]	OD detection value (Nectin-3) [OD450 nm-650 nm]	OD detection value (Nectin-like-1) [OD450 nm-650 nm]
Antibody MM11 (antibody, mouse IgG1, kappa, V domains shown, Mouse monoclonal antibody from hybridoma; also called Nectin-4 mouse monoclonal antibody MM11; mouse antibody MM11) VH: DVQLQESGPGLVKPSQSLSLTCSVTGYSITSNFYWNWIRQFPGNRLEWMGYISYDGSNNYNPSLKNRISISRDTSKNQFFLKLNSVTTEDTATYYCVRADYWGQGTLVTVSA VL: DTVMTQTPLSLPVSLGDQASISCRSSQSLESSDGHAYLNWYLQKPGQSPQLLIYRVSNRFSGVLHRFSGSGSGTDFTLKISRVEAEDLGVYFCLQFTHVPFTFGSGTKLEIKR	0.007	0.03	0.006	0.58	0.006	0.006	0.006
Antibody R012 (antibody, V domains shown, Rabbit monoclonal antibody from phage display; also called Nectin-4 rabbit monoclonal antibody R012; rabbit antibody R012) VH: SKSVEESGGRLVTPGTPLTLTCTVSGFSLSTYAMSWVRQAPGKGLEYIGIISGRGTTYYASWLKGRFTISKTSTTVDLKITSPTTEDTATYFCARDAGISDVYTGYFNLWGQGTLVTVSS VL: QPVLAQLPSASAALGASAKLTCTLSSAHRTYTIAWYQQQQGEAPRYLMMLKSDGSYTKGTGVPDRFSGSSSGADRYLIISSVQAADEADYYCGADDSGGYVFGGGTQLTVTG	0.008	0.009	0.009	0.748	0.008	0.008	0.008
Antibody R036 (antibody, V domains shown, Rabbit monoclonal antibody from phage display; also called Nectin-4 rabbit monoclonal antibody R036; rabbit antibody R036) VH: SQSVEESGGRLVTPGTPLTLTCTVSGFSLSSYAMSWVRQAPGKGLEYIGIIGGRGTTYYAIWAKGRFTISKTSTTVDLKITSPTTEDTATYFCARDAGTTYVGTTYVATGYFNLWGQGTLVTVSS VL: QPVLTQPPSASAALGASAKLTCTLSSAHKTYTIAWYQQQQGEAPRYLMILKSDGSYTRGTGVPDRFSGSSSGADRYLIISSVQADDEADYYCGADDSGGYVFGGGTQLTVTG	0.007	0.008	0.009	0.73	0.007	0.007	0.007
